The record followed here is US20080292704A1 (published 2008).

One experiment concerns the target T1, HSA1Fc (human, UniProt P02768 25-221).
T1 construct: range 1-197; also called Fc fusion protein; Ig fusion protein
As to the kind of experiment: ELISA on coated recombinant receptor, Protein G-HRPO detection. (In general: An ELISA detects its analyte on a solid surface through an enzyme-linked reagent.)

In experiment [1] the target is T2, HSA1R4 (human, UniProt P02768 25-221).
T2 construct: range 1-197; also called R4 ligand; HCH2 polymer
As to the kind of experiment: ELISA on coated recombinant receptor (2 µg/mL), HRPO-Protein G detection.

The target in experiment [2] is T2, HSA1R4. Briefly: ELISA on coated recombinant receptor (4 µg/mL), HRPO-Protein G detection.

T1 sequence (P02768 other isoform, or with tags, fused parts or gaps): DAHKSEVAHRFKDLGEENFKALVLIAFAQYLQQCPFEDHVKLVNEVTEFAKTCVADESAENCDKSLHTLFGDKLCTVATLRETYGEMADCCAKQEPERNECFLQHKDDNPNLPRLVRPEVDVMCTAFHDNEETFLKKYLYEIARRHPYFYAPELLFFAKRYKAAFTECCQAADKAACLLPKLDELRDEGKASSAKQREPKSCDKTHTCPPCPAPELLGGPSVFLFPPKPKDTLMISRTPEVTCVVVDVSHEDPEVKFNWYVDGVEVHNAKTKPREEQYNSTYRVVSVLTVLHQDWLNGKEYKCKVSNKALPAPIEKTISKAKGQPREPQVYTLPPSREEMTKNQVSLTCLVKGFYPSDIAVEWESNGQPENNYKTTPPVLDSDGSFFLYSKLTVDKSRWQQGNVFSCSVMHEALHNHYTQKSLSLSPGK
T2 sequence (P02768 other isoform, or with tags, fused parts or gaps): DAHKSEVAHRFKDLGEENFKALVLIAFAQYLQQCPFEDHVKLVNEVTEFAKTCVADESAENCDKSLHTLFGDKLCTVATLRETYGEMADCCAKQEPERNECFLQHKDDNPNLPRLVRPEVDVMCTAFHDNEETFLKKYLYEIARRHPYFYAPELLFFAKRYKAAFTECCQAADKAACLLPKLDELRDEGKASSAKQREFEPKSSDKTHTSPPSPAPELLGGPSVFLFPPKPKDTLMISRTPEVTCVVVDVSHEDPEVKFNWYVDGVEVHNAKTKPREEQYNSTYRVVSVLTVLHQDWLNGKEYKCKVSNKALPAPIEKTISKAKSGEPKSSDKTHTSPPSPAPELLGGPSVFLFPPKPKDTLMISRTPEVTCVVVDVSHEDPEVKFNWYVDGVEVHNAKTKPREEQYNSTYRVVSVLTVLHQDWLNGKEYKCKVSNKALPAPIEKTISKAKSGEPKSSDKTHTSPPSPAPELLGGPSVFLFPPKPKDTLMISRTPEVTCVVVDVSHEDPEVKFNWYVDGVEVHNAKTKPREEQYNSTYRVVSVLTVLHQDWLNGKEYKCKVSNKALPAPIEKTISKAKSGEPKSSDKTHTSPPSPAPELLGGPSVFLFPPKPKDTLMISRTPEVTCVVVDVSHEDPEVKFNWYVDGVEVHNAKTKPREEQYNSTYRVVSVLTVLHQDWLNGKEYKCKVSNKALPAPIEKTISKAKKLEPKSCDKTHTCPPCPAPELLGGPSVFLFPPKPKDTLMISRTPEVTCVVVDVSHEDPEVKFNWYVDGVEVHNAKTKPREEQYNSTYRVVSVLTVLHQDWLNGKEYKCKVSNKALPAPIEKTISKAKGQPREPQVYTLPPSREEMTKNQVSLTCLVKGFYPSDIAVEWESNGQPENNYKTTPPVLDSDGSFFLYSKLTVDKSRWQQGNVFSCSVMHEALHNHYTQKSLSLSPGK

B1: recombinant FcγRIIa ligand binding domain, 6xHis tagged (receptor)
chain: QAAAPPKAVLKLEPPWINVLQEDSVTLTCQGARSPESDSIQWFHNGNLIPTHTQPSYRFKANNNDSGEYTCQTGQTSLSDPVHLTVLSEWLVLQTPHLEFQEGETIMLRCHSWKDKPLVKVTFFQNGKSQKFSHLDPTFSIPQANHSHSGDYHCTGNIGYTLFSSKPVTITVQVPSMGSSSPMG
As for B1, in the experiment with HSA1Fc, the binding result is “no binding (tested: 20 ug/mL (highest concentration tested))”.

B2: recombinant FcγRI ligand binding domain, 6xHis tagged (receptor)
chain: QVDTTKAVITLQPPWVSVFQEETVTLHCEVLHLPGSSSTQWFLNGTATQTSTPSYRITSASVNDSGEYRCQRGLSGRSDPIQLEIHRGWLLLQVSSRVFTEGEPLALRCHAWKDKLVYNVLYYRNGKAFKFFHWNSNLTILKTNISHNGTYHCSGMGKHRYTSAGISVTVKELFPAPVLNASVTSPLLEGNLVTLSCETKLLLQRPGLQLYFSFYMGSKTLRGRNTSSEYQILTARREDSGLYWCEAATEDGNVLKRSPELELQVLGLQLPTPVWFH
As to B2, the binding result in the experiment with HSA1Fc and with HSA1R4 [1] was “binds” throughout.

B3: recombinant FcγRIIb ligand binding domain, 6xHis tagged (receptor)
chain: TPAAPPKAVLKLEPQWINVLQEDSVTLTCRGTHSPESDSIQWFHNGNLIPTHTQPSYRFKANNNDSGEYTCQTGQTSLSDPVHLTVLSEWLVLQTPHLEFQEGETIVLRCHSWKDKPLVKVTFFQNGKSKKFSRSDPNFSIPQANHSHSGDYHCTGNIGYTLYSSKPVTITVQAP
On to B3, for which the binding result with HSA1R4 [2] is recorded as “binds”; with HSA1Fc it was “no binding (tested: 20 ug/mL (highest concentration tested))”.
